Experimental data published in patent US20090325887A1 (BOARD OF TRUSTEES OF THE UNIVERSITY OF ILLINOIS, published 2009).

Columns and labels:
[1] = target: Cav3.1 channel (α3.1 subunit); assay: cell-based or functional assay
[2] = target: Cav1.2 channel (α1.2 subunit, with β2a); assay: cell-based or functional assay

With VGLTLAVL [γ6 TM1b A50L peptide] the “inhibition of Cav3.1 current at 30 µM peptide” value (“inhibition of Cav3.1 current” below) [1] was 15.8%.

LTTAGAFA [γ4 TM1a peptide] was tested, and the “inhibition of Cav3.1 current” value [1] was -3.5% and the “inhibition of Cav1.2 current at 30 µM peptide” value (“inhibition of Cav1.2 current” below) [2] was -2.5%.

With LLILAVGV [γ6 TM1a SCR peptide] the “inhibition of Cav1.2 current” value [2] was 3.2%.

For VGATLAVL [γ6 TM1b peptide], the “inhibition of Cav3.1 current” value [1] was 5.5% and the “inhibition of Cav1.2 current” value [2] was 6.7%.

In the case of VTLFFILA [γ1 TM1a peptide], the “inhibition of Cav1.2 current” value [2] is reported as 15.5%.

With VGLFFALA [γ1 TM1a T12GI16A peptide] the “inhibition of Cav1.2 current” value [2] was 27.5%.

With LTLLVAIV [γ6 TM1a G42T peptide] the “inhibition of Cav3.1 current” value [1] was 16.4%.

With FGFLVAIV [γ6 TM1a L41FL43F peptide] the “inhibition of Cav3.1 current” value [1] was 20.6%.

With LGLLFAFV [γ6 TM1a V45FI47F peptide] the “inhibition of Cav3.1 current” value [1] was 26.3%.
